Data on one protein can be found in paper PMC7193897.

Substrate in data set [1]: CCCCCCCCCC(=O)CC(=O)N[C@H]1CCOC1=O
The data set can be described thus: purified protein. The conditions noted are these: pH 8.3.

Substrate in data set [2]: CCCC(=O)N[C@H]1CCOC1=O
The data set can be described thus: purified protein. As to conditions: pH 8.3.

B1: GcL (Parageobacillus caldoxylosilyticus NBRC 107762) (protein)
chain: MANVIKARPKLYVMDNGRMRMDKNWMIAMHNPATIHNPNAQTEFVEFPIYTVLIDHPEGKILFDTSCNPNSMGPQGRWAESTQQMFPWTATEECYLHNRLEQLKVRPEDIRYVVASHLHLDHAGCLEMFTNATIIVHEDEFNGALQCYARNQKEGAYIWADIDAWIKNNLQWRTVKRHEDNILLAEGVKVLNFGSGHAWGMLGLHVELPETGGIILASDAIYTAESYGPPIKPPGIIYDSLGYMNTVERIRRIAQETKSQVWFGHDAEQFKKFRKSTEGYYE
Consider B1, for which the figures for the Km in data set [1] and in data set [2] were 97 ± 9 µM and “(9.8 ± 0.7) × 10^2 μM”, respectively. The kcat/Km in data set [2] was determined as 43000 M⁻¹ s⁻¹.
